Test results taken from the nanobody polyreactivity screen of Harvey et al. (2022).

Assay: yeast display, Sf9 membrane polyspecificity reagent, FACS + sequencing; frameworks hold sequencing errors
How it was run: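 Genes from sorted yeast were amplified by colony PCR, read by MiSeq 2 × 250 sequencing and filtered on CDR length. These cells carried a synthetic nanobody library in Saccharomyces cerevisiae BJ5465 and were sorted by FACS into low and high (top ~1%) gates on anti-HA and streptavidin fluorescence. Polyreactivity is labelled according to the gate of origin.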

Row | Sequence | polyreactivity (PSR sort gate)
1 | QVQLVESGGGLVQAGGSLRLSCAASGYIFGWYAMGWYRQAPGKERELLATIDWSGDSTYYADSVKGRFTISRDNAKNTVYLQMNSLKPEDTAVYYCAVGYVVDTWDEYDYWGQGTQVTVSS | low polyreactivity
2 | QVQLVESGGGLVQAGGSLRLSCAASGSTFSRYAMGWSRQAPGKERELVAAISSSGGSTYYADSVKGRFTISRDNAKNTVYLQMNSLKPEDTAVYYCAARIWRTRRYDYWGQGTQVTVSS | high polyreactivity
3 | QVQLVESGGGLVQAGGSLRLSCAASGSIFYNNAMGWYRQAPGKERELVAAISWRGGSTYYADSVKGRFTISRDNAKNTVYLQMNSLKPEDTAVYYCNAGVRYRGFDYWGQGTQVTVSS | high polyreactivity
4 | QVQLVESGGGLVQAGGSLRLSCAASGRIFYFNTMGWSRQAPGKERELVAAISKNGGSTYYADSVKGRFTISRDTAKNTVYLQMNSLKPEDTAVYYCAKTRRLSPYDYWGQGTQVTVSS | high polyreactivity
5 | QVQLVESGGGLVHAGGSHRLSCAASGLIFYDNMGWYRQAPGKERELVAAISSSGGSTSYADSVKGRFTISRDNAKNTVYLQMNSLKPEDTAVYYCAADSYPAYLGFVGFDYWGQGTQVTVSS | low polyreactivity
6 | QGKLVESGGGLVQAGGSLRLTCPASGSIFRLNTMGWYRQAPGKEREFVAAISKGGTSTYYADSVKGRFTISRDNAKNTVYLQLTSLIPEDTAVYYCARKRYPSAPFQYDYWGQGTQVTVSS | high polyreactivity
7 | QVQLVESGGGLVQAGGSLRLSCASSRFNFRSYAMGWYRHPPGKERELVAAISRSGGSTYYADSVKGRFTISRDNAKNTVYLQMNSLKPEDTAVYYCAAEYRIPYFFTYGYWGQGTQVTVSS | high polyreactivity
8 | LVQLVESGGGLVQAGGSLRLSCAASGSICNANAMGWYRQAPGKERELVAGIRSGSSTNYADSVKGRVTISRDNAKNTVYLQMNSLKPEDTPVYYCATEGYWVYGFDDEYWGQGTQVTVSS | low polyreactivity
9 | QVQLQESGGGLVQAGGSLRLSCAASGNIFEADIMGWYHQAQGKERELVASITDGGSTNYADSVKGRFTINRDNAKNNVYLQMNSLKPEDTAVYYCAAIAYPDIPTYFDYDSDYFYWGQGTQVTVSS | high polyreactivity
10 | QVQLVESAGGLVQAGGSLRLSCAASGFIFPTYAMGWYRQAPGKERELVAAITTGGGSTYYADSVKGRFTISRDNAKNTVYLQMNSLKPEDTAVYYCAAEYVAQAGYGEDYWGQGTQVTVSS | low polyreactivity
11 | QVQLLESGGGLVQAGGSLRLSCAASGSTFTYNAMGWYRQAPGKERELVAAISSSGGSTYYADSVKGRFTISRDNAKNTVYLQMTSLNPEDTAVYYCAKRWLYTSAFRKMDYWGQGTQVTVSS | high polyreactivity
12 | QVQLVESGGGLVQAGGSLRLSCAASGFIFSAYAMGWYRQAPGKERELVAAISYSGGTTYYADSVKGRFTISRDNAKNTVYLQMNSLKPEDTAVYYCAAGVGYWGQGTQVTVSS | high polyreactivity
13 | QVQIVDSGGGLVQAGGSLRLSCAASGLIIGPYAMGWYRQAPGKERELVAAITSGTTTYYADSVKGRFTISRDNAKNTVYLQMNSLKPEDTAVYYCAAYWPVNSQPIQIGYLYDYWGQGTQVTVSS | low polyreactivity
14 | QVQLVESGGGLVQAGGSLRLSCAASGSTFYPYAMGWYRQAPGKERELVAAISSSGGSTYYADSVKGRFTISRDNAKNTVYLQMNSLKPEDTAVYYCNADVHSQYDYWGQGTQVTVSS | low polyreactivity
15 | QVQLVESGGGLVQAGGSLRLSCAASGSTFVGNAMGWYRQAPGKERELVATMSNSGGRTYYADSVKGRFTISRDNAKNSVYLQMNSLKPEDTAVYFCNAQFDLTFRGTGDYWGQGTQVTVSS | low polyreactivity
16 | QVQHVESGGGLVQAGGSLRLSCAASGSIFYQNAMGWYRQAPGKERELVAAISSAGSTYYADSVKGRFTISRDNAKNTVYLQMNSLKPEDTAVYYCARRSSGELGYHIYDYWGQGTQVTVSS | low polyreactivity
17 | QVQLVESGGGLVQAGGSLRLSCAASGSIFYYYPMGWYRQAPGKERELVAAINSVGSTYADSVKGRFTISRDNAKNTVYLQMNSLKPEDSAVYYCENYYWGQGTQVTVSS | low polyreactivity
18 | QVQLVESGGGLVQAGGSLRLSCAASGRIFYANAMGWYRQAPGKERELVAAISWSGGSTYYADSVKGRFTISRDNAKNTVYLQMNSLKPEDTAVYYCNALGRSYRSRRYDYWGQGTQVTVSS | high polyreactivity
19 | QVQLVESGGGLVQAGGSLRLSCAASGFIFRYNTMGWYRQEPGKERELVAAISKSGGRTYYADSVKGRFTISRDNAMNTVYLQMNSLNPEDTAVYYCAATLSYTGSKRYDYWGQGTQVTVSS | high polyreactivity
20 | QVQLVESGGGLVQAGGSLRLSCAASGRILASNVMGWYRQAPGKEREFVASITYSGSSTYYADSVKGRFTISRDNAKNTVYLQMNSLKPEDTAVYYCATRYGYSDGDYWGQGTQVTVSS | low polyreactivity
21 | QVQLVESGGGLVKAGGSLRLSCAASGSNFNPYAMGWYRQEPGKQRELVAAITGSGRSTYNSDSVKGRFTISRDNAKNTVYLEMNSLKPEDTAVYYCNRARILVWSKYGYWGQGTQVTVSS | high polyreactivity
22 | QVQLVESGGGLVQSGGSLRLSCAASGRIFGAYAMGWYRQAPGKDRELVAAITSAGSTHYADSVKGRFTISRDNAKNTVYLQMNSLKPEDTAVYYCAADGIASAYVLFDAYDFLYDYWGQGTQVTVSS | low polyreactivity

Row | Sequence | polyreactivity (PSR sort gate)
23 | QVQLVESGGGLVQAGGSLRLSCAASGRIFCSYTMGWYRQAPGKERELVAAISWRGGSTYYADSVKGRFTISRDNAKNTVYLQMNSLKPEDTAVYYCAADSRSPPGDYWGQGTQVTVSS | low polyreactivity
24 | QVQLVESGGGLVQAGGSLRLSCAASVRIFGKYAMGRYRQAPGKERELVAAITNSGGRTYYAASVKGRFTISRDNAKNTVYLQMNSLKPEDTAVYYCAALYHASTRQMDYWGQGTQVTVSS | high polyreactivity
25 | QVHLVESGGGLVQAGGSLRLSCAASGFTSQYYAMGWYRQAPGKERELVAAITLRDGSTYYADSVKGRFTISRDNAKNTVYLQMNSLKPEDTAVYYCNTDATSDPYGFGYWGQGTQVTVSS | low polyreactivity
26 | QVQLVESGGGLVQAGGSLRLSCAASGSTFEYNAMGWYRQAPGKERELVASSTNYADSVKGRFTISLDNAKNTVYLQMNSLKPEDTAVYYCAREQGVNRNHDYWGQGTQVNVSS | low polyreactivity
27 | QVQLVESGGGLVQAGGSLRLSCAASGRTFQKYVMGWYRQEPGKEREIVAAISGGGGRTYYADSVKGRFTISRDNAKNTVYLQMNSLKPEDTAVYYCAARGLGKELDRFYYWGQGTQVTVSS | high polyreactivity
28 | QVQLVESGGGLVQAGGSLRLSCAASGLILNYYTMGWYRQAPGKERELVATISSSTGSTYYADSVKGRFTISRDNAKNTVYLQMNSLKPEDTAVYYCASDHWSYWQIYDYWGQGTQVTVSS | low polyreactivity
29 | QVQLVESGGGLVQAGGSLRLSCAASGRTFRRYVMGWYRQAPGKERELVAAIRWTGGSTYYADSVKGRFTISRDNAKNTVYLQMNSLKPEDTAVYYCAASSYIGYGYLGQGTQVTVSS | high polyreactivity
30 | QVQLVESGGGLVQAGGSLRLSCAASGYTFYLYAMGWYRQAPGKESELVAAISTNGGRTYYADSVKGRFTISRDNAKNTVYLQMNSLKPEDTAVYYCAVRSRGTAPQYYYWGQGTQVTVSS | high polyreactivity
31 | QVQLVESGGGLVQAGGSLRLSCAASGLTFEKYAMGWYRQAPGKERELVAAISQDGGSTYYADSVKGRFTISRDNAKNTVYLQMNSLKPEDTAVYYCAAEDPDSWLPWDLFDYWGQGTQVTVSS | low polyreactivity
32 | QVQLVESGGGLVQAGGSLRLSCAASGIIFDYNAMGWYRQAPGKERELVDSIDSGCSTNYADSVKGSFTISRDNAKNTVYLQMNSLKPEDTAVYYCNADDTTVSPWYYYYQSYYWGQGTQVTVSS | low polyreactivity
33 | QVQLVESGGGLVQAGGSLRLSCAASGRIFYYAMGWYRQAPGKERELVASITWSGGSTYYADSVKGRFTISRDNAKNTVYLQMNSLKPEDTAVYYCNADDLYTWYVVYNYWGQGTQVTVSS | low polyreactivity
34 | QVQLVESGGGLVQAGGSLRISCAASGRTGKNAMVWYRQARGNERELVAASRYNGGSTYYADSVKGRFTISRDNANNTVYLQKNIMKPEYTAVYYCAAAFRRHNGSAFNYWGHGTQVTVSS | high polyreactivity
35 | QGQLVESWGGLVQAGGSLRLSCAASGSTLRRYAMGWYRQAPGKERELVAAISRRGGSTYYADSVKGRFSISRDFAKNTVYLEMNSLKPEDTAVYYCAAKGFSTRQFDYWGQGTQVTVSS | high polyreactivity
36 | QVQLVESGGGLVQAGGSLRLSCAASGITFYYYAMGWYRQAPGKERELVAAISRSGGSTYYADSVKGRFTISRDNAKNTVYLQMNSLKPEDTAVYYCANRKGGTLYNYWGQGTQVTVSS | high polyreactivity
37 | QVHLVESGGGLVQAGGSLRLSCAASGSTFRIYSMGWYRQAPGKERELVAGITGNGGSTRYADSVKGRFTISRDNAKNTVYLQMNSLKPEDTAVYYCAARWTRQRYRTSYYSWGQGTQVTVSS | high polyreactivity
38 | QVQLVESWGGLVQAGGSLRLSCAASGSTFRSNAMGWYRQAPGKERELVAAITGSGGSTYYADSVKGRYTISRDNAKNTVYLQMNSLKPEDTAVYYCWGLGTQVTVSS | low polyreactivity
39 | QVQLVESGGGLVQAGGSLRLSSAASGSTFTRNGMGWYRQAPGKERELVAVISGSSSSTYYADSVKGRFTISRDNAKNTVYLQMNSLKPEDTAVYYCAARRYYGYAQYYYWGQGTQVTVSS | high polyreactivity
40 | QVQLVESGGGLVLAGGSRRLSCASSGSTFPLYTMGWYRQAPGKERELVAAINYGGTSTYYADSVKGRFTFSRVKAKNTVYLQRNSLKPEDTAVYYCAAERYFLYLCRKFGYWGQGTQVTVSW | high polyreactivity
41 | QVQLVESGGGIVQAGCSLRLSCAASGRIFGYYSMGWYRQAPGKDTELVAAISNGGSTHYADSVKGRFTISRDNAKNTVYLHMNSLKPEDSAVYYCAARWHYGYYAYYYWGQGTQVTVSS | high polyreactivity
42 | QVQHVESGGGLVQAGGSLRLNCAASGSTFFGNAMGWYRQAPGKERELVAAISGSGGSTYYADSVKGRFTISRDNAKNTVYLQMNSLKPEDTAVYYCAKYYLTGLARYDYWGQGTQVTVSS | high polyreactivity
43 | QVQLVESGGGLVQAGGSLRLSCAASGFIFSTYTMGWYRQAPGKERELVAAISWRGGRTYYADSVKGRFTISRDNAKNTVYLQMNSLKPEDTAVYYCADYGTIRSSTAVEPLYNHWGQGTQVTVSS | high polyreactivity
